The results in this text go back to paper PMC5389568.

First the molecules themselves.
B1: E-box 12-mer C/C (dsDNA)
DNA 1: TGCCACGTGACC
DNA 2: GGTCACGTGGCA
B2: E-box 12-mer C/5hmC (dsDNA)
DNA 1: TGCCACGTGACC
DNA 2: GGTCACGTGGCA
modifications: 5hmC at position 6 of strand 2
B3: E-box 12-mer C/5caC (dsDNA)
DNA 1: TGCCACGTGACC
DNA 2: GGTCACGTGGCA
modifications: 5caC at position 6 of strand 2
B4: E-box 12-mer C/5mC (dsDNA)
DNA 1: TGCCACGTGACC
DNA 2: GGTCACGTGGCA
modifications: 5mC at position 6 of strand 2
B5: E-box 12-mer C/5fC (dsDNA)
DNA 1: TGCCACGTGACC
DNA 2: GGTCACGTGGCA
modifications: 5fC at position 6 of strand 2
B6: Control-2 (dsDNA)
DNA 1: GAGGCGTGGC
DNA 2: TTGCCACGCCTC
B7: Control-1 (dsDNA)
DNA 1: GTCAGCGCATGG
DNA 2: CCATGCGCTGAC

In general, Kd refers to the free concentration of one partner at which half of the binding sites on the other are occupied at equilibrium, for simple one-to-one binding.

A value given as a limit tells only on which side of the number the result lay.

The target in the first data set is MAX H28R (Homo sapiens, UniProt P61244 1-160, H28R). Briefly: fluorescence polarization. A general note: Fluorescence polarisation rises when a labelled molecule tumbles more slowly, as on binding a larger partner.
MAX H28R, sequence (P61244 whole entry H28R): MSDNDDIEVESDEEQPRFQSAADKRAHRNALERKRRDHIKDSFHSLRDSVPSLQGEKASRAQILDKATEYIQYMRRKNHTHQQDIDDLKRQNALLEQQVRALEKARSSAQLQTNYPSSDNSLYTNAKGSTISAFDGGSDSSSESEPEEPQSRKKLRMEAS
Molecule B1 showed a Kd of less than 5 nM.
B2 came in with a Kd of less than 5 nM.
On the same count and under the same terms, then B3, with less than 5 nM; and B4, with less than 5 nM.
In turn, B5 displayed a Kd of less than 5 nM.

For the next data set, the target named is T1, MAX full length (Homo sapiens, UniProt P61244 1-160). Briefly: fluorescence polarization.
T1 sequence (P61244 whole entry): as the sequence (P61244 whole entry H28R) above, with R28H counted along it
As for B6, the binding result was “no binding”.
In the case of B7, the binding result is “no binding”.

Another data set deals with T1, MAX full length. Briefly: fluorescence polarization. The source holds these as a separate data set.
B2 registered a binding signal greater than 13 fold weaker than C.
As for B4, the binding signal was greater than 13 fold weaker than C.
B5 yielded a binding signal of 8 fold weaker than C.
